Experimental data reported in patent publication CN106754739A.

Target: 原核表达的重组人P53蛋白 (recombinant human P53 expressed in E. coli BL21 from PET28a-P53, Ni-NTA purified) (human) (UniProt P04637)
Test: direct ELISA, purified antibody diluted 1:200 to 1:12800 on plates coated with purified P53 (10 μg/ml), goat anti-mouse IgG-HRP, OD450

Sequence of UniProt P04637 (P04637 whole entry): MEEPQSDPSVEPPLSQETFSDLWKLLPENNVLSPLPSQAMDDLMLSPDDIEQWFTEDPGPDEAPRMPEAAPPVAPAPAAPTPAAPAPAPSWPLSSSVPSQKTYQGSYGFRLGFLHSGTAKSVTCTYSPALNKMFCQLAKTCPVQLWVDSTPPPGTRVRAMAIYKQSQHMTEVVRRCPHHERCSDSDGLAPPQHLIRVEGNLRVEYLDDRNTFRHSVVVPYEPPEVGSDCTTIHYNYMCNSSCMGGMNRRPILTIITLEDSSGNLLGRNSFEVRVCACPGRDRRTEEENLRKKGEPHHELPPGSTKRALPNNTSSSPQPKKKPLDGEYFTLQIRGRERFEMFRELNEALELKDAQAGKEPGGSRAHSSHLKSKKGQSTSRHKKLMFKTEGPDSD

ELISA titer (滴度) (dilution factor (1:x)): > 10000
B1: 小鼠抗人P53单克隆抗体6C4 (mouse anti-human P53 monoclonal antibody from hybridoma 6C4, CGMCC No. 6916) (antibody, part only; not given: light chain variable region, V domains shown, part only)
VH: DFCWSLSGVGVGCHLVTNSGKGLEWLAHIWWDDDKSYNPALKSRLTISKDTSTNQVFLKIASVDTADTATYYCARMTTATFAYWGQGTLVTVSPASTTPPISQ
